# Source: publication PMC4481117, “The opioid peptide dynorphin A induces leukocyte responses via integrin Mac-1 (αMβ2, CD11b/CD18)” (Molecular Pain, 2015)
# cellulose = cellulose membrane support; βAla = NCCC(=O)O
# Experiments:
# [1] = target: T1, 125I-labeled αMI-domain, active form (αM Glu123-Lys315) (UniProt P11215 139-331, 125I label); assay: peptide or protein array; 9-mer peptides on cellulose membrane (SPOT synthesis), blocked with 1 % BSA, incubated with 10 μg/ml 125I-labeled αMI-domain in TBS with 1 mM MgCl2; autoradiography and densitometry; conditions: both partners purified
# T1 construct: also called recombinant αMI-domain; α7 helix-truncated αMI-domain
# T1 sequence (P11215 139-331): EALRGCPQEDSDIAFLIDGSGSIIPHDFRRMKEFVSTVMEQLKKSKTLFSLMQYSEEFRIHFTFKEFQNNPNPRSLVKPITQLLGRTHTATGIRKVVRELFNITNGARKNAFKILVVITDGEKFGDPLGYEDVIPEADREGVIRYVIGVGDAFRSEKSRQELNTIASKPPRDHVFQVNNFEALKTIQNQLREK
# [2] = target: integrin Mac-1 on IC-21 murine macrophages (mouse (endogenous in IC-21), UniProt P05555 17-1153; P11835 24-771); assay: cell-based or functional assay
# integrin Mac-1 on IC-21 murine macrophages, sequence (P05555 17-1153, chain 1 of 2): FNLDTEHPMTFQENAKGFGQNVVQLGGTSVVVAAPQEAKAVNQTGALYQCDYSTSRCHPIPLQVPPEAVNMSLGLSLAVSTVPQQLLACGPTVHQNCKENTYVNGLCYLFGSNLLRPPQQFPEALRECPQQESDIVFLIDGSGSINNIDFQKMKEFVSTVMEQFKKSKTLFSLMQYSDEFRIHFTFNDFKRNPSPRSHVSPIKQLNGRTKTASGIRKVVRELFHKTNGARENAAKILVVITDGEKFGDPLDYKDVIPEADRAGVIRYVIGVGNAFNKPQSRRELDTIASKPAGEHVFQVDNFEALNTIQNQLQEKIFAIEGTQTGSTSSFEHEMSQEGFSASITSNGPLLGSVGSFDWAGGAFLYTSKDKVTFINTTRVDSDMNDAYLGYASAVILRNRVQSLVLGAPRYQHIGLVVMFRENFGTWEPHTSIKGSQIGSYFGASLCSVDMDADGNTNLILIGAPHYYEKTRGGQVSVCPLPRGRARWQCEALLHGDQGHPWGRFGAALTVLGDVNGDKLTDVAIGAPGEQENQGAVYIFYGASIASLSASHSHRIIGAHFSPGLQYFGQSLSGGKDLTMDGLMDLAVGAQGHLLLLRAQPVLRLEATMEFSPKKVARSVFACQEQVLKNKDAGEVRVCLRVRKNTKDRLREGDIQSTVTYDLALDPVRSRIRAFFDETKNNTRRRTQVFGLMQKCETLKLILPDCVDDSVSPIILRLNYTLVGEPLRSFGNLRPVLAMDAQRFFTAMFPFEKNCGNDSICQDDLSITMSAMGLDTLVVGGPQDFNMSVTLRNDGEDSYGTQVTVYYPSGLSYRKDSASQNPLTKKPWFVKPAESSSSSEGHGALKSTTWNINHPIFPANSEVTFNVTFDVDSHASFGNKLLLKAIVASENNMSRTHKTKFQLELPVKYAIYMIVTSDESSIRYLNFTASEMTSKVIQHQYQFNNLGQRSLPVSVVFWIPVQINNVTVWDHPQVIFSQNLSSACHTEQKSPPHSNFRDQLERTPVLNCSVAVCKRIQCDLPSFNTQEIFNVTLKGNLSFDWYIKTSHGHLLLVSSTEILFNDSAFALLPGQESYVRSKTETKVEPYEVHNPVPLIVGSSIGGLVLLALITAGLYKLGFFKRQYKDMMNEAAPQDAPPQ
# integrin Mac-1 on IC-21 murine macrophages, sequence (P11835 24-771, chain 2 of 2): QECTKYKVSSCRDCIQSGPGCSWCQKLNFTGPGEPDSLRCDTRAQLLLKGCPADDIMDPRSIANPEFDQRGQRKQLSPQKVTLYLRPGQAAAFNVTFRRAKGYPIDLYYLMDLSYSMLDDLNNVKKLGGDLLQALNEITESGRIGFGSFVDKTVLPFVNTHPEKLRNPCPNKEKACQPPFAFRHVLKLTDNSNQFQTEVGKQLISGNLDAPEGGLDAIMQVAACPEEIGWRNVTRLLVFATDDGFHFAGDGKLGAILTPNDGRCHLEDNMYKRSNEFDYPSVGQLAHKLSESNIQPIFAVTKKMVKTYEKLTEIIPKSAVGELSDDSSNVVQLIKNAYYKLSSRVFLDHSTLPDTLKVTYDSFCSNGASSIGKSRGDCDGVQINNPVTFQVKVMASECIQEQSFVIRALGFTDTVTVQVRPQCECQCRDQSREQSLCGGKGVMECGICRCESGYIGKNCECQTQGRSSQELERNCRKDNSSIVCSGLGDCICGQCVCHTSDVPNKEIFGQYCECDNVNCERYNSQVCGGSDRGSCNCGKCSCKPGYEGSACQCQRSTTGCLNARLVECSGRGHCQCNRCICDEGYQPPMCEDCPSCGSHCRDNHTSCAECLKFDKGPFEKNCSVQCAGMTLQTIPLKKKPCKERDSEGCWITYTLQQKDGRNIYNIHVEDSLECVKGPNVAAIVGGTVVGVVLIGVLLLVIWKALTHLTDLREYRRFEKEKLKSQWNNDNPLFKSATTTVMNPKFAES
binding result [1],"phagocytosis of Dyn A-treated fluorescent latex beads by IC-21 murine macrophages, against control beads [2] [fold]",Binder
binds,–,"Ac-FLRRIRPKL-{βAla-βAla-cellulose} (9-mer of dynorphin AB; source: synthetic peptide, parallel spot synthesis on cellulose membrane) [dynorphin AB library peptide, spot 2 (FLRRIRPKL)]"
–,~10,YGGFLRRIRPKLKWDNQ [dynorphin A]
binds,–,"Ac-YGGFLRRIR-{βAla-βAla-cellulose} (9-mer of dynorphin AB; also called peptide #1; source: synthetic peptide, parallel spot synthesis on cellulose membrane) [dynorphin AB library peptide, spot 1 (YGGFLRRIR)]"
